Measured values: patent US12269859B2, “Synthetic immune receptors and methods of use thereof” (Angeles Therapeutics, Inc., priority 2016, dated 2025)

B1: 041216 C02 (protein)
chain: MALPVTALLLPLALLLHAARPDEIVLTQSPATLSLSPGERATLSCSASSSVSYMHWYQQKPGQAPRLLIYDTSKLASGIPARFSGSGSGTDFTLTISSLEPEDVAVYYCFQGSVYPFTFGQGTKLEIKRGGGGSGGGGSGGGGSQVQLQESGPGLVKPSQTLSLTCTVSGGSISTSGMGVGWIRQHPGKGLEWIGHIWWDDDKRYNPALKSRVTISVDTSKNQFSLKLSSVTAADTAVYYCARMELWSYYFDYWGQGTLVTVSSLEGKPIPNPLLGLDSTGSGEDLKNVFPPEVAVFEPSKAEIAHTQKATLVCLATGFYPDHVELSWWVNGKEVHSGVCTDPQPLKEQPALNDSRYCLSSRLRVSATFWQNPRNHFRCQVQFYGLSENDEWTQDRAKPVTQIVSAEAWGRADCGITSASYHQGVLSATILYEILLGKATLYAVLVSALVLMAMVKRKDSRGRAKRSGSGATNFSLLKQAGDVEENPGPTSMALPVTALLLPLALLLHAARPDIQMTQSPATIENTSLSASVGDRVTITCRASQGISSWLTWYQQKPEKAPKSLIYAASSLQSGVPSRFSGSGSGTDFTLTISSLQPEDFATYYCQQYDSYPITFGQGTRLEIKGGGGSGGGGSGGGGSQVQLQQWGAGLLKPSETLSLTCAVYGGSFSAYYWSWIRQPPGKGLEWIGDINHGGGTNYNPSLKSRVTISVDTSKNQFSLKLNSVTAADTAVYYCASLTAYWGQGSLVTVSSTREQKLISEEDGSGIQNPDPAVYQLRDSKSSDKSVCLFTDFDSQTNVSQSKDSDVYITDKCVLDMRSMDFKSNSAVAWSNKSDFACANAFNNSIIPEDTFFPSSDVPCDVKLVEKSFETDTNLNFQNLSVIGFRILLLKVAGFNLLMTLRLWSSRAKRSGSGVKQTLNFDLLKLAGDVESNPGPSRGHMTEYKPTVRLATRDDVPRAVRTLAAAFADYPATRHTVDPDRHIERVTELQELFLTRVGLDIGKVWVADDGAAVAVWTTPESVEAGAVFAEIGPRMAELSGSRLAAQQQMEGLLAPHRPKEPAWFLATVGVSPDHQGKGLGSAVVLPGVEAAERAGVPAFLETSAPRNLPFYERLGFTVTADVEVPEGPRTWCMTRKPGA
modifications: Synthetic polynucleotide encoding a SIR
B2: 052316-J03 (protein)
chain: MALPVTALLLPLALLLHAARPDEIVLTQSPATLSLSPGERATLSCSASSSVSYMHWYQQKPGQAPRLLIYDTSKLASGIPARFSGSGSGTDFTLTISSLEPEDVAVYYCFQGSVYPFTFGQGTKLEIKRGGGGSGGGGSGGGGSQVQLQESGPGLVKPSQTLSLTCTVSGGSISTSGMGVGWIRQHPGKGLEWIGHIWWDDDKRYNPALKSRVTISVDTSKNQFSLKLSSVTAADTAVYYCARMELWSYYFDYWGQGTLVTVSSTREQKLISEEDGSGIQNPDPAVYQLRDSKSSDKSVCLFTDFDSQTNVSQSKDSDVYITDKTVLDMRSMDFKSNSAVAWSNKSDFACANAFNNSIIPEDTFFPSPESSCDVKLVEKSFETDTNLNFQNLSVIGFRILLLKVAGFNLLMTLRLWSSRAKRSGSGVKQTLNFDLLKLAGDVESNPGPSRGHMTEYKPTVRLATRDDVPRAVRTLAAAFADYPATRHTVDPDRHIERVTELQELFLTRVGLDIGKVWVADDGAAVAVWTTPESVEAGAVFAEIGPRMAELSGSRLAAQQQMEGLLAPHRPKEPAWFLATVGVSPDHQGKGLGSAVVLPGVEAAERAGVPAFLETSAPRNLPFYERLGFTVTADVEVPEGPRTWCMTRKPGA
modifications: Synthetic Immune Receptor (SIR)
B3: 060816-H05 (protein)
chain: MALPVTALLLPLALLLHAARPDEIVLTQSPATLSLSPGERATLSCSASSSVSYMHWYQQKPGQAPRLLIYDTSKLASGIPARFSGSGSGTDFTLTISSLEPEDVAVYYCFQGSVYPFTFGQGTKLEIKRGGGGSGGGGSGGGGSQVQLQESGPGLVKPSQTLSLTCTVSGGSISTSGMGVGWIRQHPGKGLEWIGHIWWDDDKRYNPALKSRVTISVDTSKNQFSLKLSSVTAADTAVYYCARMELWSYYFDYWGQGTLVTVSSTREQKLISEEDGSGTPFPSLAPPIMLLVDGKQQMVVVCLVLDVAPPGLDSPIWFSAGNGSALDAFTYGPSPATDGTWTNLAHLSLPSEELASWEPLVCHTGPGAEGHSRSTQPMHLSGEASTARTCPQEPLRGTPGGALWLGVLRLLLFKLLLFDLLLTCSCLCDPAGPLPSPATTTRLRALGSHRLHPATETGGREATSSPRPQPRDRRWGDTPPGRKPGSPVRAKRSGSGVKQTLNFDLLKLAGDVESNPGPSRGHMTEYKPTVRLATRDDVPRAVRTLAAAFADYPATRHTVDPDRHIERVTELQELFLTRVGLDIGKVWVADDGAAVAVWTTPESVEAGAVFAEIGPRMAELSGSRLAAQQQMEGLLAPHRPKEPAWFLATVGVSPDHQGKGLGSAVVLPGVEAAERAGVPAFLETSAPRNLPFYERLGFTVTADVEVPEGPRTWCMTRKPGA
modifications: Synthetic Immune Receptor (SIR)
B4: 102616-D06 (protein)
chain: MALPVTALLLPLALLLHAARPDVQMIQTPDSLAVSLGQRATISCRASESVDNYGISFMHWYQQKPGQSPKLLIYRASNLESGIPARFSGSGSRTDFTLTINPVETDDVATYYCQQNNKDPPTFGGGTKLEIKLEGKPIPNPLLGLDSTGSGEDLKNVFPPEVAVFEPSKAEIAHTQKATLVCLATGFYPDHVELSWWVNGKEVHSGVCTDPQPLKEQPALNDSRYCLSSRLRVSATFWQNPRNHFRCQVQFYGLSENDEWTQDRAKPVTQIVSAEAWGRADCGITSASYHQGVLSATILYEILLGKATLYAVLVSALVLMAMVKRKDSRGRAKRSGSGATNFSLLKQAGDVEENPGPTSMDWIWRILFLVGAATGAHSFEGGGGSQVQLQQSGAELVKPGASVKISCKASGYAFSSYWMNWVKQRPGKGLEWIGQIYPGDGDTTYNGKFKGKATLTADKSSSTVYMQLNSLTSEDSAVYFCVRYYYGSSGYFDYWGQGTTLTVSSTREQKLISEEDGSGIQNPDPAVYQLRDSKSSDKSVCLFTDFDSQTNVSQSKDSDVYITDKCVLDMRSMDFKSNSAVAWSNKSDFACANAFNNSIIPEDTFFPSSDVPCDVKLVEKSFETDTNLNFQNLSVIGFRILLLKVAGFNLLMTLRLWSSRAKRSGSGVKQTLNFDLLKLAGDVESNPGPSRGHMTEYKPTVRLATRDDVPRAVRTLAAAFADYPATRHTVDPDRHIERVTELQELFLTRVGLDIGKVWVADDGAAVAVWTTPESVEAGAVFAEIGPRMAELSGSRLAAQQQMEGLLAPHRPKEPAWFLATVGVSPDHQGKGLGSAVVLPGVEAAERAGVPAFLETSAPRNLPFYERLGFTVTADVEVPEGPRTWCMTRKPGA
modifications: Synthetic Immune Receptor (SIR)
B5: 092515-Y08 (protein)
chain: MALPVTALLLPLALLLHAARPDEIVLTQSPATLSLSPGERATLSCSASSSVSYMHWYQQKPGQAPRLLIYDTSKLASGIPARFSGSGSGTDFTLTISSLEPEDVAVYYCFQGSVYPFTFGQGTKLEIKRGGGGSGGGGSGGGGSQVQLQESGPGLVKPSQTLSLTCTVSGGSISTSGMGVGWIRQHPGKGLEWIGHIWWDDDKRYNPALKSRVTISVDTSKNQFSLKLSSVTAADTAVYYCARMELWSYYFDYWGQGTLVTVSSLESWKDASGWSCTDPQPLKEQPALNDSRYCLSSRLRVSATFWQNPRNHFRCQVQFYGLSENDEWTQDRAKPVTQIVSAEAWGRADCGFTSESYQQGVLSATILYEILLGKATLYAVLVSALVLMAMVKRKDSRGRAKRSGSGATNFSLLKQAGDVEENPGPTSMALPVTALLLPLALLLHAARPDIQMTQTTSSLSASLGDRVTISCRASQDISKYLNWYQQKPDGTVKLLIYHTSRLHSGVPSRFSGSGSGTDYSLTISNLEQEDIATYFCQQGNTLPYTFGGGTKLEITTREQKLISEEDLSSCDVKLVEKSFETDTNLNFQNLSVIGFRILLLKVAGFNLLMTLRLWSSSSRAKRSGSGVKQTLNFDLLKLAGDVESNPGPSRGHMTEYKPTVRLATRDDVPRAVRTLAAAFADYPATRHTVDPDRHIERVTELQELFLTRVGLDIGKVWVADDGAAVAVWTTPESVEAGAVFAEIGPRMAELSGSRLAAQQQMEGLLAPHRPKEPAWFLATVGVSPDHQGKGLGSAVVLPGVEAAERAGVPAFLETSAPRNLPFYERLGFTVTADVEVPEGPRTWCMTRKPGA
modifications: Synthetic Immune Receptor (SIR)

Tested on: target antigen-expressing cell line
Assay: Jurkat NFAT-GFP assay, coculture with target cell lines expressing the respective target antigen (summary Table 10A)
Type: cell-based, human
Design: key: The signs +/−, +, 2+ etc. after the name of the cell lines indicate the relative degree of positivity on the Jurkat-NFAT-GFP assay as measured by the % GFP positive cells; +: relative degree of positivity on the Jurkat-NFAT-GFP assay as measured by the % GFP positive cells; 2+: relative degree of positivity on the Jurkat-NFAT-GFP assay as measured by the % GFP positive cells
Settings: relative % GFP positive cells; for NFAT-GFP ASSAY Positive Cell lines: RAJI: SIR-expressing Jurkat-NFAT-GFP cells cocultured with RAJI
How it was run: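 Coculture of SIR-bearing Jurkat NFAT-GFP reporters with target cells, ~1:2 E:T, ~4–18 h. FACS quantified % GFP+ cells, ranked semi-quantitatively against parental Jurkat-NFAT-GFP.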

| Molecule | NFAT-GFP ASSAY Positive Cell lines: RAJI | further results |
| --- | --- | --- |
| B1 | – | NFAT-GFP ASSAY Positive Cell lines: L428 (SIR-expressing Jurkat-NFAT-GFP cells cocultured with L428): L428 (+/−) |
| B2 | RAJI (+) | – |
| B3 | RAJI (+) | – |
| B4 | – | NFAT-GFP ASSAY Positive Cell lines: LAN5 (SIR-expressing Jurkat-NFAT-GFP cells cocultured with LAN5): LAN5 (+) |
| B5 | RAJI (+), NALM6 (+) | NFAT-GFP ASSAY Positive Cell lines: NALM6 (SIR-expressing Jurkat-NFAT-GFP cells cocultured with NALM6): RAJI (+), NALM6 (+) |
